Values of other authors, collected in patent US20030134789A1, “Compositions and methods for protecting tissues and cells from damage, and for repairing damaged tissues” (priority 2001, published 2003).

Settings: humans, an hour after ingesting 200 g of raw peanuts

B1: peanut agglutinin (PNA): dietary lectin found in the blood of humans after ingesting raw peanuts (protein, UniProt P02872 24-273, looked up)
Galactose-binding lectin: AETVSFNFNSFSEGNPAINFQGDVTVLSNGNIQLTNLNKVNSVGRVLYAMPVRIWSSATGNVASFLTSFSFEMKDIKDYDPADGIIFFIAPEDTQIPAGSIGGGTLGVSDTKGAGHFVGVEFDTYSNSEYNDPPTDHVGIDVNSVDSVKTVPWNSVSGAVVKVTVIYDSSTKTLSVAVTNDNGDITTIAQVVDLKAKLPERVKFGFSASGSLGGRQIHLIRSWSFTSTLITTTRRSIDNNEKKIMNMASA
level in the blood: 1000 to 5000 ng/mL
